The target in assay [1] is hMC1-R (human) (UniProt Q01726). Description: cell-based or functional assay.
Assay [2] deals with hMC3-R (human) (UniProt P41968). Description: cell-based or functional assay.
Assay [3] concerns the target hMC4-R (human) (UniProt P32245). Description: cell-based or functional assay.
The target of assay [4] is hMC5-R (human) (UniProt P33032). Description: cell-based or functional assay.
In assay [5] the target is hMC1-R (human) (UniProt Q01726). Description: ratio Ki hMC1-R / Ki hMC4-R, same assay.
The target is the same in assay [6]. Description: competition with [125I]-NDP-α-MSH, CHO-K1 membranes.
Assay [7] concerns the target hMC3-R (human) (UniProt P41968). The description is as above.
The target of assay [8] is hMC4-R (human) (UniProt P32245). The description is as above.
In assay [9] the target is hMC5-R (human) (UniProt P33032). Described as above.
Assay [10] addresses human melanocortin receptor subtype 1 (hMC1-R) (human) (UniProt Q01726). Description: [125I]-NDP-α-MSH competition, membranes.
Assay [11] has as its target human melanocortin receptor subtype 4 (hMC4-R) (human) (UniProt P32245). Description: [125I]-NDP-α-MSH competition, membranes.
Assay [12] has as its target human melanocortin receptor subtype 5 (hMC5-R) (human) (UniProt P33032). Description: [125I]-NDP-α-MSH competition, membranes.
Assay [13] deals with human melanocortin receptor subtype 3 (hMC3-R) (human) (UniProt P41968). Description: [125I]-NDP-α-MSH competition, membranes.

Bridge positions count the residues as written; N and C are the ends. Square brackets hold non-standard residues; d marks the D form.

Sequence of hMC4-R (human) (P32245 whole entry): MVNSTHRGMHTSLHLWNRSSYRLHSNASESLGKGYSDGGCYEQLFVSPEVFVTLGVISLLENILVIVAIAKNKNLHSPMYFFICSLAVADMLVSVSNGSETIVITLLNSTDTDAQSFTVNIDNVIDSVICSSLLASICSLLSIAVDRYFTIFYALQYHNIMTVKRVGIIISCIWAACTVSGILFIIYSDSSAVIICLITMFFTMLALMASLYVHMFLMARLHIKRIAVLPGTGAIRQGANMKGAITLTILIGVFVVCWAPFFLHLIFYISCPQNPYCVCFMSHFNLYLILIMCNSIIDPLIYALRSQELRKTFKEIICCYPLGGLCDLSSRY
Sequence of human melanocortin receptor subtype 4 (hMC4-R) (human) (P32245 whole entry): as above
Sequence of human melanocortin receptor subtype 1 (hMC1-R) (human) (Q01726 whole entry): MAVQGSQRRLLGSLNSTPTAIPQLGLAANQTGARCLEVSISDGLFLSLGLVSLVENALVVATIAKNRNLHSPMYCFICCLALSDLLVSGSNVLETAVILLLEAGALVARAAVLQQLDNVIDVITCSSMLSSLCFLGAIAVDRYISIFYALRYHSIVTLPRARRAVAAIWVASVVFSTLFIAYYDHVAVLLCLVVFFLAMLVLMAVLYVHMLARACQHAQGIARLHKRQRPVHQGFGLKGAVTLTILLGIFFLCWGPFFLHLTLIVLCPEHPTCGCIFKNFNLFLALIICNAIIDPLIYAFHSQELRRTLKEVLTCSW
Sequence of hMC1-R (human) (Q01726 whole entry): as above
Sequence of human melanocortin receptor subtype 3 (hMC3-R) (human) (P41968 whole entry): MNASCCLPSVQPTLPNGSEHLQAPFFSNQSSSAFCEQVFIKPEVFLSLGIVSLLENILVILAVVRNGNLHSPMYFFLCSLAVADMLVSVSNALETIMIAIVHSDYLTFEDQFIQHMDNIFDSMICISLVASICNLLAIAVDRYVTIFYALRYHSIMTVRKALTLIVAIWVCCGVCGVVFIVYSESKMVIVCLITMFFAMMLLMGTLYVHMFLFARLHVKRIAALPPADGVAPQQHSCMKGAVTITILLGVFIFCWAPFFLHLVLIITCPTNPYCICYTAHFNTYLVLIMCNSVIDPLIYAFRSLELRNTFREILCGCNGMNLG
Sequence of hMC3-R (human) (P41968 whole entry): as above
Sequence of hMC5-R (human) (P33032 whole entry): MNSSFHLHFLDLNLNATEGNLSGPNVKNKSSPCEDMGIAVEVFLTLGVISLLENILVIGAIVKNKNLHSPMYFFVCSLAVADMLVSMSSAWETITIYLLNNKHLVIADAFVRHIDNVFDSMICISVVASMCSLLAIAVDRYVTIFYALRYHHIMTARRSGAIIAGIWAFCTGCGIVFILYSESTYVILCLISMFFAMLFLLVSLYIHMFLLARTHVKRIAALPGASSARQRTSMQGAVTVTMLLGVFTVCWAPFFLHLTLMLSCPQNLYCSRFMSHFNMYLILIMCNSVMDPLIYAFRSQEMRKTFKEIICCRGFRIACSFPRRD
Sequence of human melanocortin receptor subtype 5 (hMC5-R) (human) (P33032 whole entry): as above

In the case of “Ac-1-Nal-Arg-c(Cys-D-Ala-His-D-Phe-Arg-Trp-Cys)-NH2 (peptide; unit assumed)”, the cAMP EC50 in [1] was found to be 8.67 nM; in [2] it was 4.21 nM; in [3], 0.363 nM; in [4], 1320 nM.
Take “Ac-2-Nal-Arg-c(Cys-D-Ala-His-D-Phe-Arg-Trp-Cys)-NH2 (peptide; unit assumed)”: the cAMP EC50 was 9.66 nM in assay [1], 6.11 nM in assay [2], 0.275 nM in [3] and 1730 nM in [4].
For “Ac-Arg-c(Asp-His-D-Phe-Arg-Trp-Ala-Lys)-NH2 (peptide; unit assumed)” the same measures were 1.39 nM, 2.89 nM, 0.055 nM and 467 nM.
Consider “Ac-Arg-c(Cys-D-Ala-His-D-2-Nal-Arg-Trp-Cys)-NH2 (peptide; unit assumed)”, for which the cAMP EC50 in assay [1] worked out at 193 nM; in assay [4], 1110 nM. Moreover, the cAMP Kb is 5.72 nM in [2] and 1.58 nM in assay [3].
A word on the Ki: it is a measure of affinity in units of concentration, obtained from inhibition or displacement. A lower Ki goes with higher affinity. Consider “Ac-Cha-c(Asp-His-D-2-Nal-Arg-Trp-Gaba-Lys)-NH2 (peptide)”, for which the Ki hMC1-R/MC4-R in [5] came to 0.2. Also, the inhibition constant (Ki) turned out to be 0.576 nM in [6], 3.98 nM in assay [7], 2.82 nM in assay [8] and 3.91 nM in assay [9].
As to “Ac-Cha-c(Asp-His-D-2-Nal-Arg-Trp-Gaba-Lys)-NH2 (peptide; unit assumed)”, the figures for the cAMP EC50 in [1] and in [4] were 1.27 nM and 0.736 nM, respectively. Also, the cAMP Kb was found to be 3.02 nM in assay [2] and 0.442 nM in [3].
Regarding “Ac-Cha-c(Asp-His-D-Phe-Arg-Trp-Gaba-Lys)-NH2 (peptide; unit assumed)”, the cAMP EC50 in [1] was found to be 3.26 nM; in [2], 0.189 nM; in assay [3], 0.0949 nM; in assay [4] it was 30.2 nM.
For “Ac-D-Arg-c(Asp-His-D-Phe-Arg-Trp-Ala-Lys)-NH2 (peptide; unit assumed)” the same measures were 1.48 nM, 5.76 nM, 0.078 nM and 297 nM.
In the case of “Ac-D-Arg-c(Cys-D-Ala-His-D-Phe-Arg-Trp-Cys)-NH2 (peptide)”, in [9], the Ki was determined as 352 nM.
“Ac-D-Arg-c(Cys-D-Ala-His-D-Phe-Arg-Trp-Pen)-NH2 (peptide)”: the results for the Ki in assay [6], in [7] and in assay [9] were 8.29 nM, 13.3 nM and 816 nM, respectively.
For “Ac-D-Arg-c(Cys-D-Ala-His-D-Phe-Arg-Trp-Pen)-NH2 (peptide; unit assumed)”, the cAMP EC50 in [1] worked out at 26.5 nM; in assay [2], 10.5 nM; in [4], 2440 nM.
With “Ac-Nle-c(Asp-His-D-2-Nal-Arg-Trp-β-Ala-Lys)-NH2 (peptide)”, in assay [6], the Ki came out at 0.648 nM.
For the substance “Ac-Nle-c(Asp-His-D-Phe-Arg-Trp-Gaba-Lys)-NH2 (peptide; unit assumed)”, the cAMP EC50 in [1] stood at 1.37 nM; in assay [2], 0.628 nM; in assay [3], 0.131 nM; in assay [4] it was 3.48 nM.
In the case of “Ac-Nle-c(Asp-His-D-Phe-Arg-Trp-β-Ala-Lys)-NH2 (peptide; unit assumed)”, the cAMP EC50 in assay [1] came out at 0.834 nM; in assay [2] it was 0.145 nM; in assay [3] it was 0.128 nM; in assay [4] it was 2.79 nM.
Turning to “Ac-Nle-c(Cys-3-Pal-D-Phe-Arg-Trp-Gaba-Cys)-NH2 (peptide)”, the values for the Ki in assay [6], in [7] and in [9] were 21.1 nM, 151 nM and 92.6 nM, respectively.
On to “Ac-Nle-c(Cys-D-Ala-His-D-2-Nal-Arg-Bal-Cys)-NH2 (peptide)”, for which the Ki hMC1-R/MC4-R in assay [5] came to 1.34. Further, the Ki in assay [6] was found to be 22.2 nM; in [7], 12.7 nM; in [8], 16.6 nM; in assay [9] it was 125 nM.
As to “Ac-Nle-c(Cys-D-Ala-His-D-2-Nal-Arg-Trp-Cys)-NH2 (peptide; unit assumed)”, the values for the cAMP EC50 in assay [1] and in assay [4] were 17.6 nM and 11.8 nM, respectively. Further, the cAMP Kb stood at 12.4 nM in assay [2] and 38.8 nM in assay [3].
Regarding “Ac-Nle-c(Cys-D-Ala-His-D-Phe-Arg-Trp-Cys)-NH2 (peptide; unit assumed)”, the cAMP EC50 in assay [1] was determined as 2.4 nM; in assay [2], 0.33 nM; in [3], 0.078 nM; in [4], 420 nM.
For “Ac-Nle-c(Cys-D-Ala-His-D-Phe-Arg-Trp-Pen)-NH2 (peptide; unit assumed)” the same measures were 14.3 nM, 2.03 nM, 0.183 nM and 2240 nM.
For “Ac-Nle-c(Cys-D-Cha-His-D-Phe-Arg-Trp-Cys)-NH2 (peptide; unit assumed)” the same measures were 0.819 nM, 0.541 nM, 0.453 nM and 45.3 nM.
Consider Ac-WRC[dA]H[dF]RWC-NH2 (disulfide 3-9), for which the cAMP EC50 in assay [1] amounted to 5.78 nM; in assay [2] it was 3.95 nM; in assay [3] it was 0.219 nM; in assay [4], 2580 nM.
For “Ac-hCha-c(Asp-His-D-Phe-Arg-Trp-Gaba-Lys)-NH2 (peptide; unit assumed)” the same measures were 2.27 nM, 3.32 nM, 7.24 nM and 415 nM.
Take “Ac-hPhe-c(Asp-His-D-2-Nal-Arg-Trp-Gaba-Lys)-NH2 (peptide)”: the Ki in assay [6] turned out to be 0.461 nM; in [7], 2.45 nM; in assay [8], 0.931 nM.
For “Ac-hPhe-c(Asp-His-D-2-Nal-Arg-Trp-Gaba-Lys)-NH2 (peptide; unit assumed)”, the results for the cAMP EC50 in assay [1] and in [4] were 0.413 nM and 0.307 nM, respectively. The values for the cAMP Kb in assay [2] and in assay [3] were 9.32 nM and 0.824 nM, respectively.
Turning to “D-Phe-c(Cys-His-D-(Et)Tyr-hArg-Trp-β-Ala-D-Cys)-Thr-NH2 (peptide)”, the Ki hMC1-R/MC4-R in assay [5] was 0. Also, the Ki in assay [6] was found to be 0.0567 nM; in [7] it was 31.4 nM; in [8] it was 14.7 nM; in assay [9], 9.27 nM.
On to “Hydantoin(C(O)-(D-Ala-Gly))-c(Cys-D-Ala-His-D-Phe-Arg-Trp-Cys)-NH2 (peptide)”, for which, in assay [4], the cAMP EC50 turned out to be 355 nM. The Ki was found to be 11.7 nM in assay [10], 4.28 nM in assay [11] and 34.7 nM in [12].
As to “Hydantoin(C(O)-(D-Ala-Nle))-c(Cys-D-Ala-His-D-Phe-Arg-Trp-Cys)-NH2 (peptide)”, the Ki worked out at 16 nM in [10], 63.9 nM in [13] and 1820 nM in assay [12].
“Hydantoin(C(O)-(D-Arg-Gly))-c(Cys-D-Ala-His-D-Phe-Arg-Trp-Cys)-NH2 (peptide)”: the cAMP EC50 in assay [4] is 3950 nM. The Ki was found to be 3.52 nM in assay [10], 48.7 nM in [13], 5.78 nM in [11] and 872 nM in [12].
Take “Hydantoin(C(O)-(D-Arg-Gly))-c(Cys-Glu-His-D-Phe-Arg-Trp-Cys)-NH2 (peptide)”: the cAMP EC50 in assay [4] was 2710 nM. For the same substance, the inhibitory constant (Ki) in assay [10] is 9.49 nM; in assay [13] it was 124 nM; in assay [11], 2.95 nM; in assay [12], 2260 nM.
For “Hydantoin(C(O)-(Gly-D-Arg))-c(Cys-Glu-His-D-Phe-Arg-Trp-Cys)-NH2 (peptide)” the same measures were 7440 nM, 4.3 nM, 78 nM, 1.77 nM and 4540 nM.

These data come from patent US20120135923A1, “Use of Melanocortins to Treat Dyslipidemia” (IPSEN PHARMA, S.A.S., priority 2009, published 2012).
